Paper PMC8967979 (Frontiers in Immunology, 2022)

Molecular target: WH01 RBD (residues 333-530) (SARS-CoV-2 Wuhan-Hu-01 (WH01), UniProt P0DTC2)
Assay: crystal structure
Details: both partners purified

B1: Nb22 (VHH)
VHH: QVQLVESGGNLVQPGGSLRLSCAASGGTLASFAVGWFRQAPGKEREGVSCIDVINRANYADSVKGRFTISRDSAKNTVYLQMNSLEPEDTAVYSCAAHFVPPGSRLRGCLVNELYNYWGQGTQVTVSS
binding result: binds
